Patent EP4793286A1 (Shanghai Scizeng Medical Technology Co., Ltd., dated 2026)
Like-named read-outs stand apart in the source and are kept apart here.

T1: cPD-1 on CHOS-cPD-1 cells (Macaca fascicularis, UniProt Q15116 25-288 (human entry))
T1 chain: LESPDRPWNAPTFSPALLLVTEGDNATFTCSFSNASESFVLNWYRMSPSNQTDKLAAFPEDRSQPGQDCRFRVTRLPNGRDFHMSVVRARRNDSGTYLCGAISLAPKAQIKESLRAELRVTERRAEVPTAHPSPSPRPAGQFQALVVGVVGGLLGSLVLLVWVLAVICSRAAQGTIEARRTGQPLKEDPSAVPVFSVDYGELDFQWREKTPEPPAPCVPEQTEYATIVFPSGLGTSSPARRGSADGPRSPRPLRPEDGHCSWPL

T2: cPD-1 ECD-Avi-His (Macaca fascicularis, UniProt Q15116 25-170 (human entry))
T2 construct: tied to the construct by its name only; not shown: Avi tag and His tag
T2 chain: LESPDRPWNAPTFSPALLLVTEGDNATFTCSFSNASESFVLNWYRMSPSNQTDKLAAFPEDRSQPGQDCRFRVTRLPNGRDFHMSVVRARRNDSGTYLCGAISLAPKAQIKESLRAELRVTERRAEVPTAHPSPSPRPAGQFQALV

T3: hCD32A (167 His, His Tag, Sino Biological, 10374-H08C1) (human, UniProt P12318 34-218)
T3 construct: Bought protein; not shown: His tag
T3 sequence (looked up): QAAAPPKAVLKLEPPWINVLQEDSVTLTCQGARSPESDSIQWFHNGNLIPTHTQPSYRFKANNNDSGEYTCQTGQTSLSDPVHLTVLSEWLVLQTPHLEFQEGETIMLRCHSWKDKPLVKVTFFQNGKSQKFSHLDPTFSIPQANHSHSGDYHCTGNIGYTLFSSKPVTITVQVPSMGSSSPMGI

T4: hCD32B (ECD, His tag, Sino Biological, 10259-H08C) (human, UniProt P31994 43-217)
T4 construct: extracellular domain; Bought protein; not shown: His tag
T4 sequence (looked up): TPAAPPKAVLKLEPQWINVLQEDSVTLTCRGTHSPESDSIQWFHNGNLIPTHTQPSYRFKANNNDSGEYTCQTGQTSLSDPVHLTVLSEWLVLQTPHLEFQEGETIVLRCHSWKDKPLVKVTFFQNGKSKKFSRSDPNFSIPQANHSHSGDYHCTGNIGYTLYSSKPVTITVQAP


Columns and labels:
[1] = biological target: T5, PD1 on Jurkat-PD1-NFAT reporter cells (UniProt Q15116 25-288, limits assumed); assay: cell-based or functional assay
[2] = biological target: T6, hPD-1 on CHOS-hPD-1 cells (Homo sapiens, UniProt Q15116 25-288); assay: cell-based or functional assay
[3] = biological target: T1, cPD-1 on CHOS-cPD-1 cells; assay: flow cytometry on CHOS-cPD-1 cells, MFI, 4-parameter fit
[4] = biological target: T6, hPD-1 on CHOS-hPD-1 cells; assay: flow cytometry on CHOS-hPD-1 cells, MFI, 4-parameter fit
hPD-1 ECD-Avi-His = biological target: T7, hPD-1 ECD-Avi-His (human, UniProt Q15116 25-170); assay: SPR (Biacore 8K), antibody captured on Protein A chip, antigen flowed as analyte
T7 construct: tied to the construct by its name only; not shown: Avi tag and His tag

cPD-1 ECD-Avi-His = biological target: T2, cPD-1 ECD-Avi-His; assay: as above
[5] = biological target: T3, hCD32A (167 His, His Tag, Sino …); assay: SPR (Biacore 8K), His-tagged Fc receptor captured by anti-His antibody on CM5 chip, antibody flowed as analyte
[6] = biological target: T4, hCD32B (ECD, His tag, Sino Biological, …); assay: as above
hCD16A(158F)-ECD-C-his [7] = biological target: T8, hCD16A(158F)-ECD-C-his (human, UniProt P08637 17-208); assay: as above
T8 construct: extracellular domain; Homemade; not shown: C-terminal His tag

hCD16A(158V)-ECD-C-his [8] = biological target: T9, hCD16A(158V)-ECD-C-his (human, UniProt P08637 17-208); assay: as above
T9 construct: extracellular domain; Homemade; not shown: C-terminal His tag

[9] = biological target: T3, hCD32A (167 His, His Tag, Sino …); assay: SPR; ratio against 1B5-zu1-hIgG1; end of the range assigned by Table 7
[10] = biological target: T4, hCD32B (ECD, His tag, Sino Biological, …); assay: SPR; ratio against 1B5-zu1-hIgG1; end of the range assigned by Table 8
hCD16A(158F)-ECD-C-his [11] = biological target: T8, hCD16A(158F)-ECD-C-his; assay: SPR; ratio against 1B5-zu1-hIgG1; end of the range assigned by Table 9
hCD16A(158V)-ECD-C-his [12] = biological target: T9, hCD16A(158V)-ECD-C-his; assay: SPR; ratio against 1B5-zu1-hIgG1; end of the range assigned by Table 10
[13] = biological target: T3, hCD32A (167 His, His Tag, Sino …); assay: SPR; ratio against 1C4-zu1-hIgG1; end of the range assigned by Table 7
[14] = biological target: T4, hCD32B (ECD, His tag, Sino Biological, …); assay: SPR; ratio against 1C4-zu1-hIgG1; end of the range assigned by Table 8
hCD16A(158F)-ECD-C-his [15] = biological target: T8, hCD16A(158F)-ECD-C-his; assay: SPR; ratio against 1C4-zu1-hIgG1; end of the range assigned by Table 9
hCD16A(158V)-ECD-C-his [16] = biological target: T9, hCD16A(158V)-ECD-C-his; assay: SPR; ratio against 1C4-zu1-hIgG1; end of the range assigned by Table 10
[17] = biological target: T5, PD1 on Jurkat-PD1-NFAT reporter cells; assay: cell-based or functional assay; remark: listed apart in the source

T7 sequence (Q15116 25-170): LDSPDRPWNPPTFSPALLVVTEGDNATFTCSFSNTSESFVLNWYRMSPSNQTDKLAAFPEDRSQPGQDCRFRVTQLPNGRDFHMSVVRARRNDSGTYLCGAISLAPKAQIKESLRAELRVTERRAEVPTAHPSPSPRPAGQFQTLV
T8 sequence (P08637 17-208): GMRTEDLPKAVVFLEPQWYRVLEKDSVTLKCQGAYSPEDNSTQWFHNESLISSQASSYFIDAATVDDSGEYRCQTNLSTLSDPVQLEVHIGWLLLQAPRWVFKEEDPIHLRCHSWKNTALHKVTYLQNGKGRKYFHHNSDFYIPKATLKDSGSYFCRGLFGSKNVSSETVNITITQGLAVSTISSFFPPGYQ
T9 sequence (P08637 17-208 F176V): as the sequence (P08637 17-208) above, with F160V counted along it
T6 sequence (Q15116 25-288 limits assumed): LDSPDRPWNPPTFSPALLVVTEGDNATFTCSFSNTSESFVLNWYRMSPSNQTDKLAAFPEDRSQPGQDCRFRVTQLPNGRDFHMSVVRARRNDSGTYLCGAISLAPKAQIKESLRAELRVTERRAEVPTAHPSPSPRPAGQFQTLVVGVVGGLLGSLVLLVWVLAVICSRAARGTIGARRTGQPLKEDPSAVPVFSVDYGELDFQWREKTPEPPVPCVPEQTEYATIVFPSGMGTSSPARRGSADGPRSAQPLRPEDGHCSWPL
T5 sequence (Q15116 25-288 limits assumed): as above

| Binder | EC50 of inhibition of Jurkat-PD1-NFAT reporter cell activation [1] [nM] | EC50 of ADCC (LDH release, human NK cells, target cells CHOS-hPD-1) [2] [nM] | EC50 [3] [nM] | EC50 [4] [nM] | Kd (hPD-1 ECD-Avi-His) [nM] | koff (hPD-1 ECD-Avi-His) [s⁻¹] | kon (hPD-1 ECD-Avi-His) [M⁻¹ s⁻¹] | Kd (cPD-1 ECD-Avi-His) [nM] | koff (cPD-1 ECD-Avi-His) [s⁻¹] | kon (cPD-1 ECD-Avi-His) [M⁻¹ s⁻¹] | Kd [5] [nM] | Kd [6] [nM] | Kd (hCD16A(158F)-ECD-C-his [7]) [nM] | koff (hCD16A(158F)-ECD-C-his [7]) [s⁻¹] | kon (hCD16A(158F)-ECD-C-his [7]) [M⁻¹ s⁻¹] | Kd (hCD16A(158V)-ECD-C-his [8]) [nM] | koff (hCD16A(158V)-ECD-C-his [8]) [s⁻¹] | kon (hCD16A(158V)-ECD-C-his [8]) [M⁻¹ s⁻¹] | EC50 of inhibition of Jurkat-PD1-NFAT reporter cell activation [17] [nM] | other results |
| --- | --- | --- | --- | --- | --- | --- | --- | --- | --- | --- | --- | --- | --- | --- | --- | --- | --- | --- | --- | --- |
| 1B5-zu1-hIgG1 (antibody, Humanized form of B1-1B5-H1L1; human IgG1 / kappa) heavy: not shown light: EIVLTQSPATLSLSPGERATLTCRASSSVSSSYLLWYQQKSGAAPRLWIYSTSNLASGVPARFSGSGSGTDFTLTISSLEPEDFATYYCQQYSGYPLTFGQGTKLEIKRTVAAPSVFIFPPSDEQLKSGTASVVCLLNNFYPREAKVQWKVDNALQSGNSQESVTEQDSKDSTYSLSSTLTLSKADYEKHKVYACEVTHQGLSSPVTKSFNRGEC | 0.13 | 0.00512 | 20.2 | 11.9 | 11.8 | 0.0024 | 204000 | 38.5 | 0.00841 | 219000 | 5430 | 13400 | 326 | 0.03 | 92100 | 83 | 0.00798 | 96100 |  |  |
| 1B5-zu1-hIgG1 DD (antibody, Fc mutant of 1B5-zu1-hIgG1 with S239D/H268D (EU numbering)) heavy: not shown light: EIVLTQSPATLSLSPGERATLTCRASSSVSSSYLLWYQQKSGAAPRLWIYSTSNLASGVPARFSGSGSGTDFTLTISSLEPEDFATYYCQQYSGYPLTFGQGTKLEIKRTVAAPSVFIFPPSDEQLKSGTASVVCLLNNFYPREAKVQWKVDNALQSGNSQESVTEQDSKDSTYSLSSTLTLSKADYEKHKVYACEVTHQGLSSPVTKSFNRGEC | 0.15 | 0.00044 | 19.9 | 12.1 | 11.1 | 0.00231 | 209000 | 35.1 | 0.00856 | 243000 | 1470 | 1530 | 51.8 | 0.0354 | 684000 | 21.5 | 0.0103 | 481000 |  | fold higher affinity than the antibody without DD [9]: 3 to 4 fold; fold higher affinity than the antibody without DD [10]: 6 to 9 fold; fold higher affinity than the antibody without DD (hCD16A(158F)-ECD-C-his [11]): 3 to 6 fold; fold higher affinity than the antibody without DD (hCD16A(158V)-ECD-C-his [12]): 3 to 4 fold |
| 1C4-zu1-hIgG1 (antibody, Humanized form of B1-1C4-H1L1; human IgG1 / kappa) heavy: not shown light: DIVMTQSPKSLAVSLGERATINCKASQSVTNNVAWYQQKPGQPPKLLIYYVSNRYTGVPDRFSGSGYGTDFTLTISSLQAEDVAVYFCQQDYSSWTFGGGTKVEIKRTVAAPSVFIFPPSDEQLKSGTASVVCLLNNFYPREAKVQWKVDNALQSGNSQESVTEQDSKDSTYSLSSTLTLSKADYEKHKVYACEVTHQGLSSPVTKSFNRGEC | 0.12 | 0.0019 | 20.3 | 14.3 | 8.26 | 0.00195 | 236000 | 15.6 | 0.00392 | 251000 | 4940 | 10000 | 222 | 0.0248 | 112000 | 80.2 | 0.00775 | 96600 |  |  |

More lines, main results first:

| EC50 of inhibition of Jurkat-PD1-NFAT reporter cell activation [1] [nM] | EC50 of ADCC (LDH release, human NK cells, target cells CHOS-hPD-1) [2] [nM] | EC50 [3] [nM] | EC50 [4] [nM] | Kd (hPD-1 ECD-Avi-His) [nM] | koff (hPD-1 ECD-Avi-His) [s⁻¹] | kon (hPD-1 ECD-Avi-His) [M⁻¹ s⁻¹] | Kd (cPD-1 ECD-Avi-His) [nM] | koff (cPD-1 ECD-Avi-His) [s⁻¹] | kon (cPD-1 ECD-Avi-His) [M⁻¹ s⁻¹] | Kd [5] [nM] | Kd [6] [nM] | Kd (hCD16A(158F)-ECD-C-his [7]) [nM] | koff (hCD16A(158F)-ECD-C-his [7]) [s⁻¹] | kon (hCD16A(158F)-ECD-C-his [7]) [M⁻¹ s⁻¹] | Kd (hCD16A(158V)-ECD-C-his [8]) [nM] | koff (hCD16A(158V)-ECD-C-his [8]) [s⁻¹] | kon (hCD16A(158V)-ECD-C-his [8]) [M⁻¹ s⁻¹] | EC50 of inhibition of Jurkat-PD1-NFAT reporter cell activation [17] [nM] | Binder | other results |
| --- | --- | --- | --- | --- | --- | --- | --- | --- | --- | --- | --- | --- | --- | --- | --- | --- | --- | --- | --- | --- |
| 0.16 | 0.00033 | 20.1 | 13.7 | 8.05 | 0.00194 | 240000 | 15.2 | 0.00393 | 259000 | 1610 | 1680 | 62.7 | 0.0423 | 674000 | 25.4 | 0.0113 | 445000 |  | 1C4-zu1-hIgG1 DD (antibody, Fc mutant of 1C4-zu1-hIgG1 with S239D/H268D (EU numbering)) heavy: not shown light: DIVMTQSPKSLAVSLGERATINCKASQSVTNNVAWYQQKPGQPPKLLIYYVSNRYTGVPDRFSGSGYGTDFTLTISSLQAEDVAVYFCQQDYSSWTFGGGTKVEIKRTVAAPSVFIFPPSDEQLKSGTASVVCLLNNFYPREAKVQWKVDNALQSGNSQESVTEQDSKDSTYSLSSTLTLSKADYEKHKVYACEVTHQGLSSPVTKSFNRGEC | fold higher affinity than the antibody without DD [13]: 3 to 4 fold; fold higher affinity than the antibody without DD [14]: 6 to 9 fold; fold higher affinity than the antibody without DD (hCD16A(158F)-ECD-C-his [15]): 3 to 6 fold; fold higher affinity than the antibody without DD (hCD16A(158V)-ECD-C-his [16]): 3 to 4 fold |
|  |  |  |  |  |  |  |  |  |  |  |  |  |  |  |  |  |  | 0.14 | B1-1C4-H1L1 (antibody, human IgG1, kappa, V domains shown) VH: EVQLQQSGDDLVKPGASVKLSCKASGYTFTSYWITWIKQRPGQGLEWIGRIAPGSGSIYYDEMFKDKATLTVDPSSSTAYIQLSSLSSEDSAVYFCARLGNYGWTMDYWGQGTSVTVSS VL: DIVMTQTPKFLLVSAGDRVTITCKASQSVTNNVAWYQQAPGQSPKLLIYYVSNRYTGVPDRFAGSGYGTDFTFTISTVQAEDLAVYFCQQDYSSWTFGGGTKLEIKR |  |
|  |  |  |  |  |  |  |  |  |  |  |  |  |  |  |  |  |  | 0.12 | B1-1B5-H1L1 (antibody, human IgG1, kappa, V domains shown) VH: EVQLQQSGAELVKPGASVKMSCKAFGYTFTNYPIEWMKQSHGKSLEWIGNFHPYNDDTKYNEKFKGKAKLTVEKSSSTVYLELSRLTSDDSAVYYCAREDYGTYGGFAYWGQGTLVTVSS VL: EITVTQSPAIMSASPGEKVTMTCRASSSVSSSYLLWYQQKSGASPKLWIYSTSNLASGVPARFSGSGSGTSYSLTISSVEAEDAATYYCQQYSGYPLTFGAGTKLELKR |  |
